Test results: patent US20160177307

Tested on: T1, VEGF-121 (Homo sapiens), P15692-9
T1 sequence: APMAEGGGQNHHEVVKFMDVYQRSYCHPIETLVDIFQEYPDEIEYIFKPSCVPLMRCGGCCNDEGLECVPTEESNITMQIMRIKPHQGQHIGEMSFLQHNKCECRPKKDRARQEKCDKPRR
Assay: filter

Work on “CCCTCATCAGCCGTTCAAGTGCTTGTAGGATTTAAATGGAATTGGAGGA [4867-15_29]” yielded a Kd (P=Nap-dU, C3 spacer at 6) of 0.2 nM.
“TTACGTTACCGCGTTTATAGCGCCGTTCAAGTGCTTGTAGGATTTAAATGG [4149-8_401]” showed a Kd (PDGF_379-3Heg-VEGF_192, NapdU, BndU, MBndU, 2'-OMe, 5' amino linker) of 0.027 nM.
With “AGCCGTTCAAGTGCTTGTAGGATTTAAATGGA [4867-31_95]” the Kd (P=Nap-dU, 2'-OMe G31) was 0.19 nM.
“CCGTTCAAGTGCTTGTAGGATTTAAATGG [4867-31_156]” showed a Kd (NapdU at P, 2'-OMe 10) of 0.68 nM.
“CCGTTCAAGTGCTTGTAGGATTTAAATGG [4867-31_162]” was tested, and the Kd (2'-OMe-NapU at 23, other P are NapdU, target taken as VEGF-121) was 8.9 nM.
“CCGTTCAAGTGCTTGTAGGATTTAAATGG [4867-31_480]” gave a Kd (as 4867-31_192, 2'-OMe 1, PS 24,25) of 0.028 nM.
“AGCCGTTCAAGTGCTTGTAGGATTTAAATGGA [4867-31_90]” was tested, and the Kd (P=Nap-dU, 2'-OMe A26) was 2.85 nM.
“CCTCCATCAGCCGTTCAAGTGCTTGTAGGATTTAAATGGAATTGGAGGA [4867-15_26]” showed a Kd (P=Nap-dU, C3 spacer at 3) of 0.2 nM.
With “AGCCGTTCAAGTGCTTGTAGGATTTAAATGGA [4867-31_81]” the Kd (P=Nap-dU, 2'-OMe G17) was 0.44 nM.
For “CCGTTCAAGTGCTTGTAGGATTTAAATGG [4867-31_422]”, the Kd (as 4867-31_192, PS 3' of 19, 3' inverted dT) was 0.0095 nM.
Sequence “CCGTTCAAGTGCTTGTAGGATTTAAATGG [4867-31_442]” has a Kd (as 4867-31_192, PS 3' of 17 as printed, 3' inverted dT) of 0.015 nM.
“GCCGTTCAAGTGCTTGTAGGATTTAAATGG [4867-31_144]” was tested, and the Kd (NapdU at P) was 0.2 nM.
Work on “CCGTTCAAGTGCTTGTAGGATTTAAATGG [4867-31_427]” yielded a Kd (as 4867-31_192, PS 3' of 25, 3' inverted dT) of 0.0081 nM.
With “CCGTTCAAGTGCTTGTAGGATTTAAATGG [4867-31_423]” the Kd (as 4867-31_192, PS 3' of 20, 3' inverted dT) was 0.018 nM.
With “CCGTTCAAGTGCTTGTAGGATTTAAATGG [4867-31_413]” the Kd (as 4867-31_192, PS 3' of 5, 3' inverted dT) was 0.015 nM.
For “CGACAGCATGTATGCACATCTCCGTTCAAGTGCTTGTAGGATTTAAATGG [5169-4_101]”, the Kd (PDGF-4Heg-VEGF, NapdU, 2'-OMe) was 0.13 nM.
“CCCTCCATCAGCCGTTCAAGTCTTGTAGGATTTAAATGGAATTGGAGGA [4867-15_45]” was tested, and the Kd (P=Nap-dU, C3 spacer at 22) was 3.5 nM.
“CCCTCCATCAGCCGTTCAAGTGCTTGTAGATTTAAATGGAATTGGAGGA [4867-15_52]” was tested, and the Kd (P=Nap-dU, C3 spacer at 29) was 0.2 nM.
For “CCGTTCAAGTGCTTGTAGGATTTAAATGG [4867-31_412]”, the Kd (as 4867-31_192, PS 3' of 4, 3' inverted dT) was 0.022 nM.
“AGCCGTTCAAGTGCTTGTAGGATTTAAATGGA [4867-31_86]” was tested, and the Kd (P=Nap-dU, 2'-OMe A22) was 6.21 nM.
For “CCGTTCAAGTGCTTGTAGGATTTAAATGG [4867-31_416]”, the Kd (as 4867-31_192, PS 3' of 10, 3' inverted dT) was 0.0093 nM.
For “CCGTTCAAGTGCTTTAGGATTTAAATGG [4867-31_187]”, the Kd (2'-OMe G9,A17, C3 spacer at 15, all P are NapdU, target taken as VEGF-121) was 0.032 nM.
For “CCGTTCAAGTGCTTGTAGGATTTAAATGG [4867-31_414]”, the Kd (as 4867-31_192, PS 3' of 7, 3' inverted dT) was 0.015 nM.
With “CCGTTCAAGTGCTTGTAGGATTTAAATGG [4867-31_440]” the Kd (as 4867-31_192, PS 3' of 12, 3' inverted dT) was 0.0099 nM.
For “CCGTTCAAGTGCTTGTAGGATTTAAATGG [4867-31_410]”, the Kd (as 4867-31_192, PS 3' of 2, 3' inverted dT) was 0.016 nM.
For “CCGTTCAAGTGCTTGTAGGATTTAAATGG [4867-31_415]”, the Kd (as 4867-31_192, PS 3' of 8, 3' inverted dT) was 0.011 nM.
Work on “CCGTTCAAGTGCTTGTAGGATTTAAATGG [4867-31_426]” yielded a Kd (as 4867-31_192, PS 3' of 24, 3' inverted dT) of 0.012 nM.
Work on “CCCTCCATCAGCCGTTCAAGTGCTTGTAGGATTTAAATGGATTGGAGGA [4867-15_64]” yielded a Kd (P=Nap-dU, C3 spacer at 41) of 0.22 nM.
Work on “CCCTCCATCACCGTTCAAGTGCTTGTAGGATTTAAATGGAATTGGAGGA [4867-15_34]” yielded a Kd (P=Nap-dU, C3 spacer at 11) of 0.14 nM.
Work on “CCGTTCAAGTGCTTGTAGGATTTAAATGG [4867-31_191]” yielded a Kd (NapdU at P, 2'-OMe 9,15,17,18,28,29 as printed) of 0.1 nM.
“CCGTTCAAGTGCTTGTAGGATTTAAATGG [4867-31_161]” was tested, and the Kd (2'-OMe-NapU at 22, other P are NapdU, target taken as VEGF-121) was 0.064 nM.
Work on “CCGTTCAAGTGCTTATAGGATTTAAATGGA [4867-31_148]” yielded a Kd (P=Nap-dU) of 0.53 nM.
With “CCCTCCATCAGCCGTTCAAGTGCTTGTGGATTTAAATGGAATTGGAGGA [4867-15_51]” the Kd (P=Nap-dU, C3 spacer at 28) was 1.6 nM.
In the case of “CCGTTTAAGTGCTTGTAGGATTTAAATGGA [4867-31_147]”, the Kd (P=Nap-dU) is reported as 3.28 nM.
Sequence “CCGTTCAAGTGCTTGTAGGATTTAAATGG [4867-31_475]” has a Kd (as 4867-31_192, 2'-OMe 1, PS 25) of 0.026 nM.
“AGCCGTTCAAGTGCTTGTAGGATTTAAATGGA [4867-31_72]” was tested, and the Kd (P=Nap-dU, 2'-OMe C8 (inferred, superscript lost)) was 0.21 nM.
“CCGTTCAAGTGCTTTAGGATTTAAATGG [4867-31_190]” gave a Kd (NapdU at P, C3 spacer 15, 2'-OMe 9,17,18,22,28,29 as printed) of 0.089 nM.
